In patent US12338277:

Tests used:
Test in all cases: cell-based or functional assay
[1] = molecular target: HIV-1 Env of pseudovirus 1054_07_TC4_1499 (HIV-1)
[2] = molecular target: HIV-1 Env of pseudovirus T250-4 (HIV-1)
[3] = molecular target: HIV-1 Env of pseudovirus C1080.c03 (HIV-1)
[4] = molecular target: HIV-1 Env of pseudovirus 7030102001E5(Rev-) (HIV-1)
[5] = molecular target: HIV-1 envelope of pseudovirus X2131_C1_85 (HIV-1)
[6] = molecular target: HIV-1 envelope of pseudovirus CAP210.2.00.E8 (HIV-1)
[7] = molecular target: HIV-1 envelope of pseudovirus YU-2 (HIV-1)
[8] = molecular target: HIV-1 Env of pseudovirus ZM214M.PL15 (HIV-1)
[9] = molecular target: HIV-1 Env of pseudovirus 3103.v3.c10 (HIV-1)
[10] = molecular target: HIV-1 Env of pseudovirus ZM233M.PB6 (HIV-1)
[11] = molecular target: HIV-1 envelope of pseudovirus HIV-16845-2.22 (HIV-1)
[12] = molecular target: HIV-1 envelope of pseudovirus 0815.v3.c3 (HIV-1)
[13] = molecular target: HIV-1 Env of pseudovirus A07412M1.vrc12 (HIV-1)
[14] = molecular target: HIV-1 envelope of pseudovirus 0260.v5.c36 (HIV-1)
[15] = molecular target: HIV-1 Env of pseudovirus T257-31 (HIV-1)
[16] = molecular target: HIV-1 envelope of pseudovirus BJOX010000.06.2 (HIV-1)
[17] = molecular target: HIV-1 envelope of pseudovirus Du422.1 (HIV-1)
[18] = molecular target: HIV-1 envelope of pseudovirus CNE58 (HIV-1)
[19] = molecular target: HIV-1 envelope of pseudovirus 3103.v3.c10 (HIV-1)
[20] = molecular target: HIV-1 envelope of pseudovirus CNE5 (HIV-1)
[21] = molecular target: HIV-1 envelope of pseudovirus CNE8 (HIV-1)
[22] = molecular target: HIV-1 envelope of pseudovirus T278-50 (HIV-1)
[23] = molecular target: HIV-1 Env of pseudovirus P1981_C5_3 (HIV-1)
[24] = molecular target: HIV-1 envelope glycoprotein of pseudovirus 211-9 (clade CRF02_AG) (HIV-1)
[25] = molecular target: HIV-1 envelope glycoprotein of pseudovirus YU.2 (clade B) (HIV-1) (UniProt P35961)
[26] = molecular target: HIV-1 envelope glycoprotein of pseudovirus CNE52 (clade BC) (HIV-1)
[27] = molecular target: HIV-1 envelope of pseudovirus ZM233M.PB6 (HIV-1)
[28] = molecular target: HIV-1 envelope glycoprotein of pseudovirus 0260.v5.c36 (clade A) (HIV-1)
[29] = molecular target: HIV-1 envelope glycoprotein of pseudovirus Q842.d12 (clade A) (HIV-1)
[30] = molecular target: HIV-1 envelope glycoprotein of pseudovirus 6952.v1.c20 (clade CD) (HIV-1)
[31] = molecular target: HIV-1 envelope glycoprotein of pseudovirus PVO.4 (clade B) (HIV-1)
[32] = molecular target: HIV-1 envelope glycoprotein of pseudovirus CNE19 (clade BC) (HIV-1)
[33] = molecular target: HIV-1 envelope glycoprotein of pseudovirus RHPA4259.7 (clade B) (HIV-1)
[34] = molecular target: HIV-1 envelope glycoprotein of pseudovirus 3817.v2.c59 (clade CD) (HIV-1)
[35] = molecular target: HIV-1 envelope glycoprotein of pseudovirus CNE17 (clade BC) (HIV-1)
[36] = molecular target: HIV-1 envelope glycoprotein of pseudovirus CAP45.2.00.G3 (clade C) (HIV-1)
[37] = molecular target: HIV-1 Env of pseudovirus BJOX009000.02.4 (HIV-1)
[38] = molecular target: HIV-1 envelope glycoprotein of pseudovirus 6244_13_B5_4576 (clade B (T/F)) (HIV-1)
[39] = molecular target: HIV-1 envelope glycoprotein of pseudovirus ZM135M.PL10a (clade C) (HIV-1)
[40] = molecular target: HIV-1 envelope glycoprotein of pseudovirus A07412m1.vrv12 (clade D) (HIV-1)
[41] = molecular target: HIV-1 envelope glycoprotein of pseudovirus ZM214M.PL15 (clade C) (HIV-1)
[42] = molecular target: HIV-1 envelope glycoprotein of pseudovirus 62357_14_D3_4589 (clade B (T/F)) (HIV-1)
[43] = molecular target: HIV-1 envelope glycoprotein of pseudovirus T251-18 (clade CRF02_AG) (HIV-1)
[44] = molecular target: HIV-1 envelope glycoprotein of pseudovirus QH0692.42 (clade B) (HIV-1)
[45] = molecular target: HIV-1 envelope glycoprotein of pseudovirus 235-47 (clade CRF02_AG) (HIV-1)
[46] = molecular target: HIV-1 envelope glycoprotein of pseudovirus HIV-16845-2.22 (clade C) (HIV-1)
[47] = molecular target: HIV-1 envelope glycoprotein of pseudovirus 263-8 (clade CRF02_AG) (HIV-1)

10-996 (antibody), sequence (VH): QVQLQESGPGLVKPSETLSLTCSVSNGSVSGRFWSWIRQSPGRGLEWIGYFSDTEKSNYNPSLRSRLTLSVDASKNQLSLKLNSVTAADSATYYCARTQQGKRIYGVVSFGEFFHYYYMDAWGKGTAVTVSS
10-996 (antibody), sequence (VL): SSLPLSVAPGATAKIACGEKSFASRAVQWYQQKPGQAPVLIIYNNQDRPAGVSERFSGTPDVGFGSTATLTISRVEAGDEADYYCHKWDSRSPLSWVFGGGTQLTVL
10-1074 (antibody), sequence (VH): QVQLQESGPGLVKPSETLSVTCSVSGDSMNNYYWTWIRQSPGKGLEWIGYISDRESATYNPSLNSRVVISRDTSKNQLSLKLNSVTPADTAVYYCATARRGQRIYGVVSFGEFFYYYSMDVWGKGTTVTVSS
10-1074 (antibody), sequence (V domain): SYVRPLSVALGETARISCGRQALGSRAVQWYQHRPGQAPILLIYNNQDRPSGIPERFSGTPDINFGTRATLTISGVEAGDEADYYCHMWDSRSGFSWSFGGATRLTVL
HIV-1 envelope glycoprotein of pseudovirus YU.2 (clade B) (HIV-1), sequence (P35961 32-843): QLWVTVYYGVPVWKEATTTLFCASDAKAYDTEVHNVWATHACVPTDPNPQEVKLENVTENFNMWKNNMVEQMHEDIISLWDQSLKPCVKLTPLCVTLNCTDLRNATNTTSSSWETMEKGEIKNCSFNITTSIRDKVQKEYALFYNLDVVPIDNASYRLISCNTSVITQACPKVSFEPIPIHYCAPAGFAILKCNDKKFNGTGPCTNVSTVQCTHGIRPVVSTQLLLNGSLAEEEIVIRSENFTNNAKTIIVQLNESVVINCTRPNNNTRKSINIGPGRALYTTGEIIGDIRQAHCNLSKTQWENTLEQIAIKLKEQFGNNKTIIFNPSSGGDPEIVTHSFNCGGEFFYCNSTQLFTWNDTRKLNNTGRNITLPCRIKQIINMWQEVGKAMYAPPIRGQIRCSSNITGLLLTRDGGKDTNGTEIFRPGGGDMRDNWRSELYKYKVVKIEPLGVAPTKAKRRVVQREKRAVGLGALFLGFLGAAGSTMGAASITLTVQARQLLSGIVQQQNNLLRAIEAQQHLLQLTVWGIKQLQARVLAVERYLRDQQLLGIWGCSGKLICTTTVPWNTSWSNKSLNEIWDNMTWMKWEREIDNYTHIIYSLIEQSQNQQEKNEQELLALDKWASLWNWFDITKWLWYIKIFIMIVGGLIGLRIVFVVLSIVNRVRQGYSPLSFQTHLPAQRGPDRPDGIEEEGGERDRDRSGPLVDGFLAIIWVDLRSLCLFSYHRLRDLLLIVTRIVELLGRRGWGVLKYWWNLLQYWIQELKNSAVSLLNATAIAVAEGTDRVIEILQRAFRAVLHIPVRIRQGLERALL

10-996 (antibody)
IC80 (TZM-bl neutralization) [1]: 0.901 µg/mL | IC80 (TZM-bl neutralization) [2]: 5 ng/mL | IC80 (TZM-bl neutralization) [3]: > 50 µg/mL | IC80 (TZM-bl neutralization) [4]: 0.044 µg/mL | IC50 (TZM-bl neutralization) [5]: 0.019 µg/mL | IC50 (TZM-bl neutralization) [6]: 24.8 µg/mL | IC50 (TZM-bl neutralization) [7]: 0.256 µg/mL | IC80 (TZM-bl neutralization) [8]: 3.25 µg/mL | IC80 (TZM-bl neutralization) [9]: 0.15 µg/mL | IC80 (TZM-bl neutralization) [10]: 4.52 µg/mL | IC50 (TZM-bl neutralization) [11]: 1.32 µg/mL | IC50 (TZM-bl neutralization) [12]: 0.061 µg/mL | IC80 (TZM-bl neutralization) [13]: 0.07 µg/mL | IC50 (TZM-bl neutralization) [14]: 0.16 µg/mL | IC80 (TZM-bl neutralization) [15]: > 50 µg/mL | IC50 (TZM-bl neutralization) [16]: > 50 µg/mL | IC50 (TZM-bl neutralization) [17]: 0.056 µg/mL | IC50 (TZM-bl neutralization) [18]: 0.57 µg/mL | IC50 (TZM-bl neutralization) [19]: 0.053 µg/mL | IC50 (TZM-bl neutralization) [20]: > 50 µg/mL | IC50 (TZM-bl neutralization) [21]: > 50 µg/mL | IC50 (TZM-bl neutralization) [22]: 14 µg/mL | IC80 (TZM-bl neutralization) [23]: 0.018 µg/mL

10-1074 (antibody)
IC50 in the TZM-bl neutralization assay [24]: 0.425 µg/mL | IC80 (TZM-bl neutralization) [1]: 0.563 µg/mL | IC50 in the TZM-bl neutralization assay [25]: 0.398 µg/mL | IC50 in the TZM-bl neutralization assay [26]: 13.1 µg/mL | IC80 (TZM-bl neutralization) [2]: 5 ng/mL | IC80 (TZM-bl neutralization) [3]: > 50 µg/mL | IC50 (TZM-bl neutralization) [27]: 0.06 µg/mL | IC50 in the TZM-bl neutralization assay [28]: 0.16 µg/mL | IC50 in the TZM-bl neutralization assay [29]: > 50 µg/mL | IC80 (TZM-bl neutralization) [4]: 0.021 µg/mL | IC50 in the TZM-bl neutralization assay [30]: 0.138 µg/mL | IC50 (TZM-bl neutralization) [5]: 0.016 µg/mL | IC50 in the TZM-bl neutralization assay [31]: 0.36 µg/mL | IC50 (TZM-bl neutralization) [6]: > 50 µg/mL | IC50 in the TZM-bl neutralization assay [32]: 50 µg/mL | IC50 in the TZM-bl neutralization assay [33]: 0.118 µg/mL | IC50 (TZM-bl neutralization) [7]: 0.143 µg/mL | IC50 in the TZM-bl neutralization assay [34]: 14.9 µg/mL | IC80 (TZM-bl neutralization) [8]: 2.37 µg/mL | IC50 in the TZM-bl neutralization assay [35]: 13.3 µg/mL | IC50 in the TZM-bl neutralization assay [36]: > 50 µg/mL | IC80 (TZM-bl neutralization) [37]: > 50 µg/mL | IC80 (TZM-bl neutralization) [9]: 0.101 µg/mL | IC80 (TZM-bl neutralization) [10]: 0.349 µg/mL | IC50 in the TZM-bl neutralization assay [38]: 0.922 µg/mL | IC50 (TZM-bl neutralization) [11]: 1.17 µg/mL | IC50 in the TZM-bl neutralization assay [39]: 0.367 µg/mL | IC50 in the TZM-bl neutralization assay [40]: 0.048 µg/mL | IC50 (TZM-bl neutralization) [12]: 0.03 µg/mL | IC80 (TZM-bl neutralization) [13]: 0.048 µg/mL | IC50 in the TZM-bl neutralization assay [41]: 2.37 µg/mL | IC50 in the TZM-bl neutralization assay [42]: > 50 µg/mL | IC50 in the TZM-bl neutralization assay [43]: 7.39 µg/mL | IC50 (TZM-bl neutralization) [14]: 0.099 µg/mL | IC80 (TZM-bl neutralization) [15]: > 50 µg/mL | IC50 (TZM-bl neutralization) [16]: > 50 µg/mL | IC50 in the TZM-bl neutralization assay [44]: 0.929 µg/mL | IC50 (TZM-bl neutralization) [17]: 0.045 µg/mL | IC50 in the TZM-bl neutralization assay [45]: 0.163 µg/mL | IC50 in the TZM-bl neutralization assay [46]: 5.83 µg/mL | IC50 (TZM-bl neutralization) [18]: 0.267 µg/mL | IC50 (TZM-bl neutralization) [19]: 0.037 µg/mL | IC50 (TZM-bl neutralization) [20]: > 50 µg/mL | IC50 (TZM-bl neutralization) [21]: > 50 µg/mL | IC50 (TZM-bl neutralization) [22]: 2.15 µg/mL | IC50 in the TZM-bl neutralization assay [47]: 6.53 µg/mL | IC80 (TZM-bl neutralization) [23]: 0.017 µg/mL

PGT121 (antibody)
IC50 in the TZM-bl neutralization assay [24]: 8.84 µg/mL | IC80 (TZM-bl neutralization) [1]: 0.696 µg/mL | IC50 in the TZM-bl neutralization assay [25]: 0.356 µg/mL | IC50 in the TZM-bl neutralization assay [26]: 32.9 µg/mL | IC80 (TZM-bl neutralization) [3]: > 50 µg/mL | IC50 (TZM-bl neutralization) [27]: 1.45 µg/mL | IC50 in the TZM-bl neutralization assay [28]: 0.152 µg/mL | IC50 in the TZM-bl neutralization assay [29]: 0.074 µg/mL | IC80 (TZM-bl neutralization) [4]: 0.043 µg/mL | IC50 in the TZM-bl neutralization assay [30]: 0.605 µg/mL | IC50 in the TZM-bl neutralization assay [31]: 0.945 µg/mL | IC50 (TZM-bl neutralization) [6]: 5.08 µg/mL | IC50 in the TZM-bl neutralization assay [32]: 0.189 µg/mL | IC50 in the TZM-bl neutralization assay [33]: 0.054 µg/mL | IC50 (TZM-bl neutralization) [7]: 0.098 µg/mL | IC50 in the TZM-bl neutralization assay [34]: > 50 µg/mL | IC80 (TZM-bl neutralization) [8]: 3.15 µg/mL | IC50 in the TZM-bl neutralization assay [35]: > 50 µg/mL | IC50 in the TZM-bl neutralization assay [36]: 6.54 µg/mL | IC80 (TZM-bl neutralization) [37]: 37.3 µg/mL | IC80 (TZM-bl neutralization) [9]: 0.11 µg/mL | IC80 (TZM-bl neutralization) [10]: 8.98 µg/mL | IC50 in the TZM-bl neutralization assay [38]: 1.88 µg/mL | IC50 (TZM-bl neutralization) [11]: 12.7 µg/mL | IC50 in the TZM-bl neutralization assay [39]: 5.88 µg/mL | IC50 in the TZM-bl neutralization assay [40]: 0.406 µg/mL | IC80 (TZM-bl neutralization) [13]: 0.406 µg/mL | IC50 in the TZM-bl neutralization assay [41]: 3.15 µg/mL | IC50 in the TZM-bl neutralization assay [42]: 45.6 µg/mL | IC50 in the TZM-bl neutralization assay [43]: > 50 µg/mL | IC50 (TZM-bl neutralization) [14]: 0.054 µg/mL | IC80 (TZM-bl neutralization) [15]: > 50 µg/mL | IC50 (TZM-bl neutralization) [16]: > 50 µg/mL | IC50 in the TZM-bl neutralization assay [44]: 8.54 µg/mL | IC50 in the TZM-bl neutralization assay [45]: 1.68 µg/mL | IC50 in the TZM-bl neutralization assay [46]: > 50 µg/mL | IC50 (TZM-bl neutralization) [18]: > 50 µg/mL | IC50 (TZM-bl neutralization) [19]: 0.042 µg/mL | IC50 (TZM-bl neutralization) [20]: > 50 µg/mL | IC50 (TZM-bl neutralization) [21]: > 50 µg/mL | IC50 (TZM-bl neutralization) [22]: > 50 µg/mL | IC50 in the TZM-bl neutralization assay [47]: 24.6 µg/mL
